From US11820827B2, “Methods of treating myelodysplastic syndrome and acute myeloid leukemia with nonfucosylated anti-CD70 antibodies” (Seagen Inc., priority 2019, dated 2023) come the findings set out here.

The subject of this experiment is MV4-11 AML xenograft. As to the kind of experiment: Tumor growth in the MV4-11 AML xenograft model, SEA-CD70, azacitidine, venetoclax (Example 11). It counts as in vivo, SCID mice. Conditions: antibody 10 mg/kg Q4dx5, azacitidine 2 mg/kg Q1dx5 3 cycles, venetoclax 25 mg/kg oral Q1dx21; comparisons at day 39. The source says: Tumor growth was reported as a volume and calculated as an average across animals within each treatment group (FIG. 11A). Immunocompromised SCID mice were implanted with 5×10e6 MV4-11 cells subcutaneously in the flank on day 0. When mean tumor size of 50 mm^3 (measured by using the formula: Volume (mm^3)=0.5*Length*Width^2, where the length is the longer dimension) was reached, mice were randomized into treatment groups of 10 mice per group. Stock concentrations of antibody and chemotherapy were diluted to the appropriate concentration and injected into animals at 10 μl/g of body weight. Tumor length and width, and animal weight were measured two times weekly throughout the study and tumor volume was calculated using the formula above. Animals were followed until tumor volume measured ˜1000 mm^3, at which time the animals were euthanized. Animals were dosed on various schedules based on treatment received; animals receiving antibody were treated with 10 mg/kg of antibody (Q4dx5), azacitidine-treated animals were dosed daily (2 mg/kg) for five consecutive days (Q1dx5) each week, for a total of 3 cycles (3 weeks); venetoclax was given at 25 mg/kg every day by oral gavage for 21 days consecutively (Q1dx21). Animal receiving combination of treatments received each treatment at the same dose and schedule as the single treatments.

B1: SEA-CD70: humanized, nonfucosylated monoclonal IgG1 antibody targeting CD70 (nonfucosylated h1F6) (antibody, chains of the INN, looked up, V domains shown)
VH: QVQLVQSGAEVKKPGASVKVSCKASGYTFTNYGMNWVRQAPGQGLKWMGWINTYTGEPTYADAFKGRVTMTRDTSISTAYMELSRLRSDDTAVYYCARDYGDYGMDYWGQGTTVTVSS
VL: DIVMTQSPDSLAVSLGERATINCRASKSVSTSGYSFMHWYQQKPGQPPKLLIYLASNLESGVPDRFSGSGSGTDFTLTISSLQAEDVAVYYCQHSREVPWTFGQGTKVEIK
modifications: nonfucosylated
For B1, the “effect on tumor growth” value is “delay tumor growth”.
